From patent publication US20210187091A1 (published 2021) come the findings set out here.

In experiment [1] the target is T1, Man9-V3 glycopeptide (Man9GlcNAc2 at N301 and at N332; disulfide bridge between C296 and C331 (cyclized); biotin tag).
T1 peptide: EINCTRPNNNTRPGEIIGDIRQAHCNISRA
Briefly: BLI. (Biolayer interferometry detects binding as a change in optical thickness at a sensor tip.)

Experiment [2] addresses T1, Man9-V3 glycopeptide. Briefly: BLI.

Numbering of substitutions follows the chain as printed. Where two headings read alike, the source gives them in different places.

B1: DH270.IA1 (antibody, V domains shown)
VH: QVQLVQSGAEVKKPGASVKVSCKASGYTFTDYYIHWVRQAPGQGLEWMGWINPNTGRTNYAQKFQGRVIMTRDTSISTAYMELSRLRSDDTAVYYCARGGWIGLYYDSSGYPNFDYWGQGTLVTVSS
VL: QSALTQPASVSGSPGQSITISCTGTSYDVGSYNLVSWYQQHPGKAPKLMIYEVSKRPSGVSNRFSGSKSGNTASLTISGLQAEDEADYYCCSYAGSSTVIFGGGTKLTVL
As usually defined, the Kd is the equilibrium constant for the complex coming apart. A low value points to tighter binding. In experiment [1], B1 showed a Kd of 3290 nM.

B2: DH270.2 (antibody, V domains shown)
VH: QVQLVQSGAEMKKPGASVRVSCKASGYTFTDYYIHWVRQAPGQGPEWMGWINPSTGRTNSPQKFQGRVIMTRDTSISTAYMDLNRLTSDDTAMYYCTTGGWIGLYSDTSGYPNFDYWGQGTLVTVSS
VL: B1 VL with S26N, A45V, L48Y, M49I, S54N, T98I, V99I, I100F, L110I
For the molecule B2, in experiment [2], the equilibrium dissociation constant (Kd) was determined as 4770 nM.

B3: DH270.5 (antibody, V domains shown)
VH: QVQLVQSGAEVKNPGASVKVSCAPSGYTFTDFYIHWVRLAPGQGLEWLGWMNPKTGRTNQGQNFQGRVIMTRDTSIGTAYMELRSLTSDDTAVYYCVTGAWISDYYDSSYYPNFDHWGQGTLVTVSS
VL: LPVLTQPASVSGSPGQSITISCTGTIYDVGKFDLVSWYQHHPGKAPKYLIYEVKKWPSGVSHRFSGSKSGNTASLTISGLQVEDEADYYCCSFGGSAAVVCGGGTKVTVL
In turn, B3 had a Kd in experiment [2] of 281 nM.

B4: DH270.3 (antibody, V domains shown)
VH: B3 VH with V11M, P24A, L48M, Q60N, G61A, S85R, A100G, D104P
VL: B3 VL with L1Q, P2S, V3A, I26S, H40Q, L49M, K54N, V82A, A98T
The molecule B4 had a Kd in experiment [2] of 195 nM.

B5: DH270.4 (antibody, V domains shown)
VH: EVQLVQSGAEMKNPGASVKVSCAASGYGFTDFYIHWVRLAPGHGLQWMGWMNPKTGRTNNAQDFQGRVILTRDTSIGTAYMELRRLTSDDTAVYYCVTGGWISPYYDSSYYPNFDHWGQGTLITVSS
VL: QSALTQPASVSGSPGQSITISCTGTSYDVAKFDLVSWFQQHPGKAPKYMIYEVNKWPSGVSHRFSGSKSGNTASLTISGLQAEDEADYYCCSFGGSATVVCGGGTKVTVL
The molecule B5 registered a Kd in experiment [2] of 346 nM.
